According to patent US20140087995A1 (published 2014):
Like-named read-outs stand apart in the source and are kept apart here. Numbered stars: 1 amine (or outer) side, 2 acyl side, 3 side chain; on linkers, the order of the positions; unused ones are H or OH. Bridge positions count the residues as written; N and C are the ends. Side chains are listed from the residue outwards. Ends that are not written are not given here. * marks the point of attachment. C20 diacid = O=C(O)CCCCCCCCCCCCCCCCCCC(=O)*; γGlu = O=C(O)[C@H](CCC(=O)[*:2])N[*:1]; AEEA = NCCOCCOCC(=O)O

T1: human amylin receptor (amylin 3(a) receptor: human calcitonin receptor plus RAMP-3) (human, UniProt P30988 25-474; O60896 24-148, limits assumed)
T1 sequence (looked up) 1: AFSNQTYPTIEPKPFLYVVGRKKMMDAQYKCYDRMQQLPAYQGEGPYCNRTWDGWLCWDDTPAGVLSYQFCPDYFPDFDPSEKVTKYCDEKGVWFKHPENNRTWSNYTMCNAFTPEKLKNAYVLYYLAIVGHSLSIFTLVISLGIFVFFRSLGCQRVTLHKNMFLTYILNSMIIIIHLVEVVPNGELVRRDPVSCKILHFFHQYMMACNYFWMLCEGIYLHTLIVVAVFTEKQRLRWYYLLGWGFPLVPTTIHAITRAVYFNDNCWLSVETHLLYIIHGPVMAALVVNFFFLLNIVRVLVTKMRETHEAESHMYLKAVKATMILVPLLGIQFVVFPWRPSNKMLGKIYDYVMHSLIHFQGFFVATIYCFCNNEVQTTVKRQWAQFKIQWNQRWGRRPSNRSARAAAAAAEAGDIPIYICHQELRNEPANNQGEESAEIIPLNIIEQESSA
T1 sequence (looked up) 2: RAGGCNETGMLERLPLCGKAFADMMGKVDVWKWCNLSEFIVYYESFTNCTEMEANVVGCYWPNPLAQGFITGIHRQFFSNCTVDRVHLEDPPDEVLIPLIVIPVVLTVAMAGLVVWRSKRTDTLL

T2: human calcitonin receptor (human, UniProt P30988 25-474)
T2 sequence (looked up): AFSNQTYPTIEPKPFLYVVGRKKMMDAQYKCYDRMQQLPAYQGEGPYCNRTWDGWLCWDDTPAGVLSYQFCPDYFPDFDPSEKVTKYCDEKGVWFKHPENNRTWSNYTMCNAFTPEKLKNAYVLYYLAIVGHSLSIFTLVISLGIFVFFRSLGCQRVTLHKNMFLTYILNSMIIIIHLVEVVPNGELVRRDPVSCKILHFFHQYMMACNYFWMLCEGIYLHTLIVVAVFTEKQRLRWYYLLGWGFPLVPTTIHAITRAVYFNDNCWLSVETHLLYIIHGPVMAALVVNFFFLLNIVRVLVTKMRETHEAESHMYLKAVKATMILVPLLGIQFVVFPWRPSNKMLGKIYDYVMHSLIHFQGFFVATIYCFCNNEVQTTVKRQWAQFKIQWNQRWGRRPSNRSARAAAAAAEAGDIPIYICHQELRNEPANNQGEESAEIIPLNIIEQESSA

T3: human calcitonin receptor (human, UniProt P30988 25-474)
T3 sequence (looked up): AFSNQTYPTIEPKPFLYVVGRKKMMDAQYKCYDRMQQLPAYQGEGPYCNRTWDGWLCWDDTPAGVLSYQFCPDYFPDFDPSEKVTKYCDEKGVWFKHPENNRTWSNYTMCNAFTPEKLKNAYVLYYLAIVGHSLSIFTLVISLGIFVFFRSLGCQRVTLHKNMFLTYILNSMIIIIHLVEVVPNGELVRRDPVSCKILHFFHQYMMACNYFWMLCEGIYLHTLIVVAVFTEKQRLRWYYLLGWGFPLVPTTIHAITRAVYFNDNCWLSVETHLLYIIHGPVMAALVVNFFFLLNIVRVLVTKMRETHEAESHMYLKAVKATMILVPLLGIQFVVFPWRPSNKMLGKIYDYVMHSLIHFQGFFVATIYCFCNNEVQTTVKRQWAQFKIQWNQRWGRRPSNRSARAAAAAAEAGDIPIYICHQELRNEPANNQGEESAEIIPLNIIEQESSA


Assays:
Test in all cases: cell-based or functional assay
[1] = biological target: T1, human amylin receptor (amylin 3(a) …)
[2] = biological target: T2, human calcitonin receptor
[3] = biological target: T3, human calcitonin receptor; remark: listed apart in the source

| Binder | Ratio hCT/hAmylin funct. [1] [ratio] | hAmylin-R funct. EC50 [1] [nM] | hCTR funct. EC50 [2] [nM] | hCTR funct. EC50 [3] [nM] |
| --- | --- | --- | --- | --- |
| KCNTATCATQRLAEFLRHSSPNFGAIPSSTNVGSNTY (C20 diacid-gGlu-2xOEG on the alpha amino group of the N-terminal residue; disulfide bridge Cys2-Cys7; C-terminal amide, Synthetic acylated analogue of human amylin; also called compound 19) | 17.4 | 0.307 | 5.32 | – |
| KCNTATCATQRLANFLRHSSPNFGAIPSSTNVGSKTY (C20 diacid-gGlu on the alpha amino group of the N-terminal residue; disulfide bridge Cys2-Cys7; C-terminal amide, Synthetic acylated analogue of human amylin; also called compound 34) [N^α1-[(4S)-4-carboxy-4-(19-carboxynonadecanoylamino)butanoyl]-[Arg17,Pro21,Pro27,Lys35]-h-amylin] | 8.4 | 0.313 | 2.62 | – |
| K([AEEA-γGlu-C20 diacid])RCNTATCATQRLANFLRHSSPNFGAIPSSTNVGSHTY-NH2 (disulfide 3-8; N-terminus assumed; SMILES CC[C@H](C)[C@H](NC(=O)[C@H](C)NC(=O)CNC(=O)[C@H](Cc1ccccc1)NC(=O)[C@H](CC(N)=O)NC(=O)[C@@H]1CCCN1C(=O)[C@H](CO)NC(=O)[C@H](CO)NC(=O)[C@H](Cc1c[nH]cn1)NC(=O)[C@H](CCCNC(=N)N)NC(=O)[C@H](CC(C)C)NC(=O)[C@H](Cc1ccccc1)NC(=O)[C@H](CC(N)=O)NC(=O)[C@H](C)NC(=O)[C@H](CC(C)C)NC(=O)[C@H](CCCNC(=N)N)NC(=O)[C@H](CCC(N)=O)NC(=O)[C@@H](NC(=O)[C@H](C)NC(=O)[C@@H]1CSSC[C@H](NC(=O)[C@H](CCCNC(=N)N)NC(=O)[C@@H](N)CCCCNC(=O)COCCOCCNC(=O)CC[C@H](NC(=O)CCCCCCCCCCCCCCCCCCC(=O)O)C(=O)O)C(=O)N[C@@H](CC(N)=O)C(=O)N[C@@H]([C@@H](C)O)C(=O)N[C@@H](C)C(=O)N[C@@H]([C@@H](C)O)C(=O)N1)[C@@H](C)O)C(=O)N1CCC[C@H]1C(=O)N[C@@H](CO)C(=O)N[C@@H](CO)C(=O)N[C@H](C(=O)N[C@@H](CC(N)=O)C(=O)N[C@H](C(=O)NCC(=O)N[C@@H](CO)C(=O)N[C@@H](Cc1c[nH]cn1)C(=O)N[C@H](C(=O)N[C@@H](Cc1ccc(O)cc1)C(N)=O)[C@@H](C)O)C(C)C)[C@@H](C)O, h-amylin derivative, N-terminally extended by one residue; disulfide bridge and C-terminal amide as told for human amylin; also called compound 45) | – | – | – | 10.1 |
| {C20 diacid-γGlu}-GRCNTATCATQRLANFLRHSSPNFGAIPSSTNVGSNTY-NH2 (disulfide 3-8; SMILES CC[C@H](C)[C@H](NC(=O)[C@H](C)NC(=O)CNC(=O)[C@H](Cc1ccccc1)NC(=O)[C@H](CC(N)=O)NC(=O)[C@@H]1CCCN1C(=O)[C@H](CO)NC(=O)[C@H](CO)NC(=O)[C@H](Cc1c[nH]cn1)NC(=O)[C@H](CCCNC(=N)N)NC(=O)[C@H](CC(C)C)NC(=O)[C@H](Cc1ccccc1)NC(=O)[C@H](CC(N)=O)NC(=O)[C@H](C)NC(=O)[C@H](CC(C)C)NC(=O)[C@H](CCCNC(=N)N)NC(=O)[C@H](CCC(N)=O)NC(=O)[C@@H](NC(=O)[C@H](C)NC(=O)[C@@H]1CSSC[C@H](NC(=O)[C@H](CCCNC(=N)N)NC(=O)CNC(=O)CC[C@H](NC(=O)CCCCCCCCCCCCCCCCCCC(=O)O)C(=O)O)C(=O)N[C@@H](CC(N)=O)C(=O)N[C@@H]([C@@H](C)O)C(=O)N[C@@H](C)C(=O)N[C@@H]([C@@H](C)O)C(=O)N1)[C@@H](C)O)C(=O)N1CCC[C@H]1C(=O)N[C@@H](CO)C(=O)N[C@@H](CO)C(=O)N[C@H](C(=O)N[C@@H](CC(N)=O)C(=O)N[C@H](C(=O)NCC(=O)N[C@@H](CO)C(=O)N[C@@H](CC(N)=O)C(=O)N[C@H](C(=O)N[C@@H](Cc1ccc(O)cc1)C(N)=O)[C@@H](C)O)C(C)C)[C@@H](C)O, h-amylin derivative, N-terminally extended by one residue; disulfide bridge and C-terminal amide as told for human amylin; also called compound 46) [N^-1-[(4S)-4-carboxy-4-(19-carboxynonadecanoylamino)butanoyl]-Gly[Arg1,Arg17,Pro21,Pro27]-h-amylin] | – | – | – | 0.899 |

Next, values leading:

| Ratio hCT/hAmylin funct. [1] [ratio] | hAmylin-R funct. EC50 [1] [nM] | hCTR funct. EC50 [2] [nM] | hCTR funct. EC50 [3] [nM] | Binder |
| --- | --- | --- | --- | --- |
| 9.2 | 0.22 | 2.03 | – | {C20 diacid-γGlu}-KCNTATCATQRLANFLRHSSPNFGAIPSSTPVGSETY-NH2 (disulfide 2-7; SMILES CC[C@H](C)[C@H](NC(=O)[C@H](C)NC(=O)CNC(=O)[C@H](Cc1ccccc1)NC(=O)[C@H](CC(N)=O)NC(=O)[C@@H]1CCCN1C(=O)[C@H](CO)NC(=O)[C@H](CO)NC(=O)[C@H](Cc1c[nH]cn1)NC(=O)[C@H](CCCNC(=N)N)NC(=O)[C@H](CC(C)C)NC(=O)[C@H](Cc1ccccc1)NC(=O)[C@H](CC(N)=O)NC(=O)[C@H](C)NC(=O)[C@H](CC(C)C)NC(=O)[C@H](CCCNC(=N)N)NC(=O)[C@H](CCC(N)=O)NC(=O)[C@@H](NC(=O)[C@H](C)NC(=O)[C@@H]1CSSC[C@H](NC(=O)[C@H](CCCCN)NC(=O)CC[C@H](NC(=O)CCCCCCCCCCCCCCCCCCC(=O)O)C(=O)O)C(=O)N[C@@H](CC(N)=O)C(=O)N[C@@H]([C@@H](C)O)C(=O)N[C@@H](C)C(=O)N[C@@H]([C@@H](C)O)C(=O)N1)[C@@H](C)O)C(=O)N1CCC[C@H]1C(=O)N[C@@H](CO)C(=O)N[C@@H](CO)C(=O)N[C@H](C(=O)N1CCC[C@H]1C(=O)N[C@H](C(=O)NCC(=O)N[C@@H](CO)C(=O)N[C@@H](CCC(=O)O)C(=O)N[C@H](C(=O)N[C@@H](Cc1ccc(O)cc1)C(N)=O)[C@@H](C)O)C(C)C)[C@@H](C)O, Synthetic acylated analogue of human amylin; also called compound 28) |
| – | – | – | 1.97 | K([γGlu-C20 diacid])CNTATCATQRLANFLRHSSPNFGAIPSSTNVGSNTY-NH2 (disulfide 2-7; N-terminus assumed; SMILES CC[C@H](C)[C@H](NC(=O)[C@H](C)NC(=O)CNC(=O)[C@H](Cc1ccccc1)NC(=O)[C@H](CC(N)=O)NC(=O)[C@@H]1CCCN1C(=O)[C@H](CO)NC(=O)[C@H](CO)NC(=O)[C@H](Cc1c[nH]cn1)NC(=O)[C@H](CCCNC(=N)N)NC(=O)[C@H](CC(C)C)NC(=O)[C@H](Cc1ccccc1)NC(=O)[C@H](CC(N)=O)NC(=O)[C@H](C)NC(=O)[C@H](CC(C)C)NC(=O)[C@H](CCCNC(=N)N)NC(=O)[C@H](CCC(N)=O)NC(=O)[C@@H](NC(=O)[C@H](C)NC(=O)[C@@H]1CSSC[C@H](NC(=O)[C@@H](N)CCCCNC(=O)CC[C@H](NC(=O)CCCCCCCCCCCCCCCCCCC(=O)O)C(=O)O)C(=O)N[C@@H](CC(N)=O)C(=O)N[C@@H]([C@@H](C)O)C(=O)N[C@@H](C)C(=O)N[C@@H]([C@@H](C)O)C(=O)N1)[C@@H](C)O)C(=O)N1CCC[C@H]1C(=O)N[C@@H](CO)C(=O)N[C@@H](CO)C(=O)N[C@H](C(=O)N[C@@H](CC(N)=O)C(=O)N[C@H](C(=O)NCC(=O)N[C@@H](CO)C(=O)N[C@@H](CC(N)=O)C(=O)N[C@H](C(=O)N[C@@H](Cc1ccc(O)cc1)C(N)=O)[C@@H](C)O)C(C)C)[C@@H](C)O, h-amylin derivative; disulfide bridge and C-terminal amide as told for human amylin; also called compound 48) [N^ε1-[(4S)-4-carboxy-4-(19-carboxynonadecanoylamino)butanoyl]-[Arg17,Pro21,Pro27]-h-amylin] |
